Measurements as given in publication PMC4118026.
Several values for one entry are separate records, joined by “and”; a condition that tells them apart may be missing. Equal entries are not always repeated.

Target: T1, apoptosis-associated speck-like protein containing a CARD (mouse (endogenous in primary cortical astrocytes)), Q9EPB4
T1 chain: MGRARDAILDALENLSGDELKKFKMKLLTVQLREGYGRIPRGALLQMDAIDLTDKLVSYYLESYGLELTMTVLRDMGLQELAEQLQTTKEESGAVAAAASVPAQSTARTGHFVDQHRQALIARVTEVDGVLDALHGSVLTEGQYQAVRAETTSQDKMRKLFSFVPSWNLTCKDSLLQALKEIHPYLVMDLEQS
Experiment: cross-linking; astrocytes treated with ATP, LPS or ethanol, lysed in PBS/Triton 0.5%; 8000 x g pellets cross-linked with 2 mM DSS for 30 min at room temperature; 12% SDS-PAGE, blot with anti-mouse ASC
Conditions: remark: other sources report otherwise

stoichiometry N: 2 and 3
B1: apoptosis-associated speck-like protein containing a CARD, Q9EPB4 1-193 (natural protein)
chain: T1 chain
